US20220323445A1, “REDUCING IMMUNOGENICITY TO PEGLOTICASE” (Horizon Therapeutics Ireland DAC, priority 2020, published 2022)

Test system: serum uric acid (sUA)
Test: Serum uric acid (sUA) levels and sUA responders, open-label study of pegloticase with MTX (NCT03635957)
Assay type: in vivo, human
Protocol: The primary objective is to estimate the response rate during Month 6 (Weeks 20, 22, and 24), as measured by the sustained normalization of serum uric acid (SUA) to <6 mg/dL for at least 80% of the time during Month 6 in subjects receiving KXX with MTX.
The primary efficacy outcome endpoint is the sustained normalization of SUA to <6 mg/dL for at least 80% of the time during month 6 (weeks 20, 22, and 24) in subjects receiving KXX with MTX. This is slightly below the urate solubility threshold and this threshold has been the accepted standard for nearly all modern gout trials. Participants who achieve this endpoint were classified as “responders.” Serum uric acid (SUA) responders may also be defined as participants achieving and maintaining SUA <6 mg/dL for at least 80% of the time during Month 6 (Weeks 20, 22, and 24).
Blood samples may be collected prior to each pegloticase infusion for measurement of SUA levels using the Beckman Coulter AU System Uric Acid procedure. Participants were declared “non-responders” if there were SUA measures >6 mg/dL at 2 consecutive study visits beginning with the week 2 visit. […] If the SUA goal is not maintained before or at the 12-week mark, it was assumed that the participant had developed clinically relevant anti-pegloticase antibody and they received no further infusions. This assumption and subsequent discontinuation of pegloticase was consistent with the protocol of large phase III randomized controlled trials and the product label. A formal stopping rule was 2 occasions of SUA levels of greater than 6 mg/dL.
Clinical Chemistry—Blood samples were collected prior to each pegloticase infusion for measurement of SUA levels (primary efficacy parameter) using the Beckman Coulter AU System Uric Acid procedure. In this procedure uric acid is converted to hydrogen peroxide. Hydrogen peroxide reacts with reagent to produce a chromophore which is read bichromatically at 660/800 nm. The amount of dye formed is proportional to the uric acid concentration in the sample.
Serum samples for measurement of SUA levels were collected at the Screening Visit, the Week −4 Visit (prior to the first dose of MTX), and the Week −2 Visit during the MTX Run-in Period; within 48 hours prior to each pegloticase infusion and after the end of each pegloticase infusion prior to discharge from the site during the Pegloticase+IMM Period; at the non-infusion Week 52/End of Study/Early Termination Visits and at the Post Treatment 3 and 6 Month Follow-up Visits. Additional serum samples for SUA levels were collected at optional non-infusion (Frequent Sampling) Visits at Weeks 1 and 7. […] Subjects with SUA level >6 mg/dL at 2 consecutive visits beginning at Week 2 visit discontinued treatment, completed the End of Pegloticase Infusion Visit procedures within 2 weeks and continued the subject visits according to the protocol (without treatment).
Efficacy analyses were performed using the modified intention-to-treat (mITT) population, defined as all enrolled subjects who received ≥1 dose of pegloticase. The proportion of Month 6 responders was summarized, along with a 95% confidence interval for the proportion. The proportion of Month 3 and overall (Months 3 and 6 combined) responders was analyzed similarly.
A subject was declared a non-responder if the subject had SUA level >6 mg/dL at 2 consecutive study visits beginning with the Week 2 Visit. In addition, a subject who withdraws from study treatment for any reason after the first dose of pegloticase in the KXX+MTX Period and prior to Month 6 (for the primary endpoint) or Month 3 (for the secondary endpoint) was considered a non-responder if SUA values were not collected at the planned time points.
Patients were administered oral MTX (15 mg/week) and folate (1 mg/day) 4 weeks prior to the first pegloticase infusion (Day 1) and throughout the pegloticase treatment period. […]

[1] = Day 1 - Post-Infusion, Month 6 sUA Non-Responders
[2] = Day 1 - Post-Infusion, Month 6 sUA Responders
[3] = Day 1 - Post-Infusion, mITT, n=11
[4] = Early Termination Visit, Month 6 sUA Non-Responders
[5] = Early Termination Visit, mITT, n=3
[6] = End of Pegloticase Infusions Visit, Month 6 sUA Responders
[7] = End of Pegloticase Infusions Visit, mITT, n=2
[8] = Week 1, Month 6 sUA Non-Responders
[9] = Week 2 - Post-Infusion, Month 6 sUA Non-Responders
[10] = Week 2 - Post-Infusion, Month 6 sUA Responders
[11] = Week 2 - Post-Infusion, mITT, n=14
[12] = Week 2 - Pre-Infusion, Month 6 sUA Non-Responders
[13] = Week 2 - Pre-Infusion, Month 6 sUA Responders
[14] = Week 2 - Pre-Infusion, mITT, n=14
[15] = Week 4 - Post-Infusion, Month 6 sUA Non-Responders
[16] = Week 4 - Post-Infusion, Month 6 sUA Responders
[17] = Week 4 - Post-Infusion, mITT, n=13
[18] = Week 4 - Pre-Infusion, Month 6 sUA Non-Responders
[19] = Week 4 - Pre-Infusion, Month 6 sUA Responders
[20] = Week 4 - Pre-Infusion, mITT, n=14
[21] = Week 6 - Post-Infusion, Month 6 sUA Non-Responders
[22] = Week 6 - Post-Infusion, Month 6 sUA Responders
[23] = Week 6 - Post-Infusion, mITT, n=12
[24] = Week 6 - Pre-Infusion, Month 6 sUA Non-Responders

B1: pegloticase (protein)
chain: TYKKNDEVEFVRTGYGKDMIKVLHIQRDGKYHSIKEVATTVQLTLSSKKDYLHGDNSDVIPTDTIKNTVNVLAKFKGIKSIETFAVTICEHFLSSFKHVIRAQVYVEEVPWKRFEKNGVKHVHAFIYTPTGTHFCEVEQIRNGPPVIHSGIKDLKVLKTTQSGFEGFIKDQFTTLPEVKDRCFATQVYCKWRYHQGRDVDFEATWDTVRSIVLQKFAGPYDKGEYSPSVQKTLYDIQVLTLGQVPEIEDMEISLPNIHYLNIDMSKMGLINKEEVLLPLDNPYGKITGTVKRKLSSRL
modifications: monomethoxy PEG conjugated; Krystexxa Sequence
notes: covalent conjugate of uricase produced by a genetically modified strain of Escherichia coli and monomethoxypoly (ethylene glycol)
[1]
  sUA < 6 mg/dL, %: (100%)
  sUA Change from Baseline, Mean: -6.60 mg/dL
  sUA Change from Baseline, Median: -7.20 mg/dL
  sUA Observed, Mean: 2.13 mg/dL
  sUA Observed, Median: 1.20 mg/dL
[2]
  sUA < 6 mg/dL, %: (100%)
  sUA Change from Baseline, Mean: -7.55 mg/dL
  sUA Change from Baseline, Median: -7.50 mg/dL
  sUA Observed, Mean: 0.83 mg/dL
  sUA Observed, Median: 0.30 mg/dL
[3]
  sUA < 6 mg/dL, n (%): 11 (100%)
  sUA Change from Baseline, Mean (SD): −7.29 (2.254) mg/dL
  sUA Change from Baseline, Median: -7.30 mg/dL
  sUA Observed, Mean (SD): 1.18 (1.417) mg/dL
  sUA Observed, Median: 0.30 mg/dL
[4]
  sUA Change from Baseline, Mean: -0.57 mg/dL
  sUA Change from Baseline, Median: -0.20 mg/dL
  sUA Observed, Mean: 8.17 mg/dL
  sUA Observed, Median: 8.20 mg/dL
[5]
  sUA < 6 mg/dL, n (%): 0%
  sUA Change from Baseline, Mean (SD): −0.57 (0.635) mg/dL
  sUA Change from Baseline, Median: -0.20 mg/dL
  sUA Observed, Mean (SD): 8.17 (0.058) mg/dL
  sUA Observed, Median: 8.20 mg/dL
[6]
  sUA < 6 mg/dL, %: (100%)
  sUA Change from Baseline, Mean: -8.50 mg/dL
  sUA Change from Baseline, Median: -8.50 mg/dL
  sUA Observed, Mean: 0.30 mg/dL
  sUA Observed, Median: 0.30 mg/dL
[7]
  sUA < 6 mg/dL, n (%): 2 (100%)
  sUA Change from Baseline, Mean (SD): −8.50 (1.556) mg/dL
  sUA Change from Baseline, Median: -8.50 mg/dL
  sUA Observed, Mean (SD): 0.30 (0.000) mg/dL
  sUA Observed, Median: 0.30 mg/dL
[8]
  sUA < 6 mg/dL, %: (100%)
  sUA Change from Baseline, Mean: -8.10 mg/dL
  sUA Change from Baseline, Median: -8.10 mg/dL
  sUA Observed, Mean: 0.30 mg/dL
  sUA Observed, Median: 0.30 mg/dL
Week 1, Month 6 sUA Responders
  sUA < 6 mg/dL, %: (100%)
  sUA Change from Baseline, Mean: -6.88 mg/dL
  sUA Change from Baseline, Median: -7.15 mg/dL
  sUA Observed, Mean: 0.30 mg/dL
  sUA Observed, Median: 0.30 mg/dL
Week 1, mITT, n=6
  sUA < 6 mg/dL, n (%): 6 (100%)
  sUA Change from Baseline, Mean (SD): −7.28 (1.556) mg/dL
  sUA Change from Baseline, Median: -7.75 mg/dL
  sUA Observed, Mean (SD): 0.30 (0.000) mg/dL
  sUA Observed, Median: 0.30 mg/dL
[9]
  sUA < 6 mg/dL, %: (100%)
  sUA Change from Baseline, Mean: -8.43 mg/dL
  sUA Change from Baseline, Median: -8.10 mg/dL
  sUA Observed, Mean: 0.30 mg/dL
  sUA Observed, Median: 0.30 mg/dL
[10]
  sUA < 6 mg/dL, %: (100%)
  sUA Change from Baseline, Mean: -8.97 mg/dL
  sUA Change from Baseline, Median: -8.80 mg/dL
  sUA Observed, Mean: 0.30 mg/dL
  sUA Observed, Median: 0.30 mg/dL
[11]
  sUA < 6 mg/dL, n (%): 14 (100%)
  sUA Change from Baseline, Mean (SD): −8.86 (2.486) mg/dL
  sUA Change from Baseline, Median: -8.70 mg/dL
  sUA Observed, Mean (SD): 0.30 (0.000) mg/dL
  sUA Observed, Median: 0.30 mg/dL
[12]
  sUA < 6 mg/dL, %: (66.7%)
  sUA Change from Baseline, Mean: -5.17 mg/dL
  sUA Change from Baseline, Median: -5.70 mg/dL
  sUA Observed, Mean: 3.57 mg/dL
  sUA Observed, Median: 2.70 mg/dL
[13]
  sUA < 6 mg/dL, %: (100%)
  sUA Change from Baseline, Mean: -8.64 mg/dL
  sUA Change from Baseline, Median: -8.80 mg/dL
  sUA Observed, Mean: 0.63 mg/dL
  sUA Observed, Median: 0.30 mg/dL
[14]
  sUA < 6 mg/dL, n (%): 13 (92.9%)
  sUA Change from Baseline, Mean (SD): −7.90 (2.878) mg/dL
  sUA Change from Baseline, Median: -8.70 mg/dL
  sUA Observed, Mean (SD): 1.26 (2.163) mg/dL
  sUA Observed, Median: 0.30 mg/dL
[15]
  sUA < 6 mg/dL, %: (100%)
  sUA Change from Baseline, Mean: -8.60 mg/dL
  sUA Change from Baseline, Median: -8.60 mg/dL
  sUA Observed, Mean: 0.30 mg/dL
  sUA Observed, Median: 0.30 mg/dL
[16]
  sUA < 6 mg/dL, %: (100%)
  sUA Change from Baseline, Mean: -8.97 mg/dL
  sUA Change from Baseline, Median: -8.80 mg/dL
  sUA Observed, Mean: 0.30 mg/dL
  sUA Observed, Median: 0.30 mg/dL
[17]
  sUA < 6 mg/dL, n (%): 13 (100%)
  sUA Change from Baseline, Mean (SD): −8.92 (2.577) mg/dL
  sUA Change from Baseline, Median: -8.80 mg/dL
  sUA Observed, Mean (SD): 0.30 (0.000) mg/dL
  sUA Observed, Median: 0.30 mg/dL
[18]
  sUA < 6 mg/dL, %: (33.3%)
  sUA Change from Baseline, Mean: -3.70 mg/dL
  sUA Change from Baseline, Median: -1.80 mg/dL
  sUA Observed, Mean: 5.03 mg/dL
  sUA Observed, Median: 6.60 mg/dL
[19]
  sUA < 6 mg/dL, %: (100%)
  sUA Change from Baseline, Mean: -8.59 mg/dL
  sUA Change from Baseline, Median: -8.60 mg/dL
  sUA Observed, Mean: 0.68 mg/dL
  sUA Observed, Median: 0.30 mg/dL
[20]
  sUA < 6 mg/dL, η (%): 12 (85.7%)
  sUA Change from Baseline, Mean (SD): −7.54 (3.768) mg/dL
  sUA Change from Baseline, Median: -8.00 mg/dL
  sUA Observed, Mean (SD): 1.61 (2.637) mg/dL
  sUA Observed, Median: 0.30 mg/dL
[21]
  sUA < 6 mg/dL, %: (100%)
  sUA Change from Baseline, Mean: -9.10 mg/dL
  sUA Change from Baseline, Median: -9.10 mg/dL
  sUA Observed, Mean: 0.30 mg/dL
  sUA Observed, Median: 0.30 mg/dL
[22]
  sUA < 6 mg/dL, %: (100%)
  sUA Change from Baseline, Mean: -8.97 mg/dL
  sUA Change from Baseline, Median: -8.80 mg/dL
  sUA Observed, Mean: 0.30 mg/dL
  sUA Observed, Median: 0.30 mg/dL
[23]
  sUA < 6 mg/dL, n (%): 12 (100%)
  sUA Change from Baseline, Mean (SD): −8.98 (2.679) mg/dL
  sUA Change from Baseline, Median: -8.95 mg/dL
  sUA Observed, Mean (SD): 0.30 (0.000) mg/dL
  sUA Observed, Median: 0.30 mg/dL
[24]
  sUA < 6 mg/dL, %: (50.0%)
  sUA Change from Baseline, Mean: -4.65 mg/dL
  sUA Change from Baseline, Median: -4.65 mg/dL
  sUA Observed, Mean: 4.25 mg/dL
  sUA Observed, Median: 4.25 mg/dL
